No end group written: not given here.
Experiment: Distribution of tritium-labelled pentapeptide after intranasal administration
Format: in vivo
Settings: rats, tritium label
Protocol: The study to determine how the medication of the invention is distributed through the body and reaches the brain was conducted on rats. Specially prepared rats were intranasally administered the pharmaceutical composition containing the pentapeptide of the invention radioactively-labelled with tritium. The animals were then euthanized at certain time intervals to be able to assess the biodistribution of the peptide in the brain and its transportation path.

With “pentapeptide of the invention radioactively-labelled with tritium: pentapeptide Thr-Lys-Pro-Arg-Pro (SEQ ID NO: 5) labelled with tritium, given intranasally in a pharmaceutical composition (TKPRP; also: tritium label, position not given here)” the “biodistribution: delivery to the brain” value was “a significant part of the medication reached the brain undegraded” and the “biodistribution: site of detection” value was “detected in the olfactory bulbs and other parts of the brain”.
